Assay results: patent US20130336893A1 (Sanofi, published 2013)
*1 amine or outer side, *2 acyl side, *3 side chain or, on linkers, in order; H or OH if unused. Where no end group is shown, it is not given here. [ ]: non-standard residue; d: D form. Cysteamide = C(CS[*:3])N[*:1]

Experiments:
human glucagon receptor = human glucagon receptor (human, UniProt P47871 26-477); test: cell-based or functional assay
human GLP-1 receptor = human GLP-1 receptor (human, UniProt P43220 24-463); test: cell-based or functional assay

Sequence of human glucagon receptor (P47871 26-477): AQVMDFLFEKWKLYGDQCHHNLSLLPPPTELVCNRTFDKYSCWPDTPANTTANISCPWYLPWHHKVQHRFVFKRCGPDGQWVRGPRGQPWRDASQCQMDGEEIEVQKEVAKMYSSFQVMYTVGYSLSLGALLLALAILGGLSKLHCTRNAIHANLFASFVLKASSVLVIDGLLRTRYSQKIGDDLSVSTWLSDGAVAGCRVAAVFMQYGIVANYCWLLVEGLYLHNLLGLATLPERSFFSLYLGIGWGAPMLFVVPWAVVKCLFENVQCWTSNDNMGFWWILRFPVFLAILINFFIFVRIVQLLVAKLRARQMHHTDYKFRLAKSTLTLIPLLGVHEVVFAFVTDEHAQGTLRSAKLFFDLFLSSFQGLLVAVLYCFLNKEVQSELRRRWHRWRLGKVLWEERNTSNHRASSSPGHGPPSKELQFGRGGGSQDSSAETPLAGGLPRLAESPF

Row | Binder | EC50 hGlucagonR (cAMP formation) (human glucagon receptor) | EC50 hGLP-1R (cAMP formation) (human GLP-1 receptor)
1 | H[dS]QGTFTSDLSKQMDSRRAKDFIEWLKNGGPSSGAPPPS-NH2 (N-terminus assumed; SMILES CC[C@H](C)[C@H](NC(=O)[C@H](Cc1ccccc1)NC(=O)[C@H](CC(=O)O)NC(=O)[C@H](CCCCN)NC(=O)[C@H](C)NC(=O)[C@H](CCCNC(=N)N)NC(=O)[C@H](CCCNC(=N)N)NC(=O)[C@H](CO)NC(=O)[C@H](CC(=O)O)NC(=O)[C@H](CCSC)NC(=O)[C@H](CCC(N)=O)NC(=O)[C@H](CCCCN)NC(=O)[C@H](CO)NC(=O)[C@H](CC(C)C)NC(=O)[C@H](CC(=O)O)NC(=O)[C@H](CO)NC(=O)[C@@H](NC(=O)[C@H](Cc1ccccc1)NC(=O)[C@@H](NC(=O)CNC(=O)[C@H](CCC(N)=O)NC(=O)[C@@H](CO)NC(=O)[C@@H](N)Cc1c[nH]cn1)[C@@H](C)O)[C@@H](C)O)C(=O)N[C@@H](CCC(=O)O)C(=O)N[C@@H](Cc1c[nH]c2ccccc12)C(=O)N[C@@H](CC(C)C)C(=O)N[C@@H](CCCCN)C(=O)N[C@@H](CC(N)=O)C(=O)NCC(=O)NCC(=O)N1CCC[C@H]1C(=O)N[C@@H](CO)C(=O)N[C@@H](CO)C(=O)NCC(=O)N[C@@H](C)C(=O)N1CCC[C@H]1C(=O)N1CCC[C@H]1C(=O)N1CCC[C@H]1C(=O)N[C@@H](CO)C(N)=O) [SEQ ID NO: (30)] | 1.05 nM | 0.0505 nM
2 | HSQGTFTSDLSKQMDSRRAQDFIEWLKNGGPSSGAPPPS-Cysteamide [SEQ ID NO: (8)] | 0.0351 nM | 0.0203 nM
3 | HSQGTFTSDLSKQMDSRRAQDFIEWLKNGGPSSGAPPPS-{NH‑CH2‑CH2‑S‑tBu} [SEQ ID NO: (36)] | 0.0458 nM | 0.0189 nM
4 | HGQGTFTSDLSKQMDSRRAQDFIEWLKNGGPSSGAPPPS-NH2 [SEQ ID NO: (11)] | 2.32 nM | 0.0254 nM
5 | H[dS]QGTFTSDLSKQMDSRRAQDFIEWLKKGGPSSGEPPPS-NH2 (N-terminus assumed; SMILES CC[C@H](C)[C@H](NC(=O)[C@H](Cc1ccccc1)NC(=O)[C@H](CC(=O)O)NC(=O)[C@H](CCC(N)=O)NC(=O)[C@H](C)NC(=O)[C@H](CCCNC(=N)N)NC(=O)[C@H](CCCNC(=N)N)NC(=O)[C@H](CO)NC(=O)[C@H](CC(=O)O)NC(=O)[C@H](CCSC)NC(=O)[C@H](CCC(N)=O)NC(=O)[C@H](CCCCN)NC(=O)[C@H](CO)NC(=O)[C@H](CC(C)C)NC(=O)[C@H](CC(=O)O)NC(=O)[C@H](CO)NC(=O)[C@@H](NC(=O)[C@H](Cc1ccccc1)NC(=O)[C@@H](NC(=O)CNC(=O)[C@H](CCC(N)=O)NC(=O)[C@@H](CO)NC(=O)[C@@H](N)Cc1c[nH]cn1)[C@@H](C)O)[C@@H](C)O)C(=O)N[C@@H](CCC(=O)O)C(=O)N[C@@H](Cc1c[nH]c2ccccc12)C(=O)N[C@@H](CC(C)C)C(=O)N[C@@H](CCCCN)C(=O)N[C@@H](CCCCN)C(=O)NCC(=O)NCC(=O)N1CCC[C@H]1C(=O)N[C@@H](CO)C(=O)N[C@@H](CO)C(=O)NCC(=O)N[C@@H](CCC(=O)O)C(=O)N1CCC[C@H]1C(=O)N1CCC[C@H]1C(=O)N1CCC[C@H]1C(=O)N[C@@H](CO)C(N)=O) [SEQ ID NO: (33)] | 0.347 nM | 0.138 nM
6 | H[dA]QGTFTSDLSKQMDSRRAQDFIEWLKNGGPSSGAPPPS-NH2 [SEQ ID NO: (40)] | 1.18 nM | 0.0081 nM
7 | H[dS]QGTFTSDLSKQMDSRRAQLFIEWLKNGGPSSGAPPPS-NH2 (N-terminus assumed; SMILES CC[C@H](C)[C@H](NC(=O)[C@H](Cc1ccccc1)NC(=O)[C@H](CC(C)C)NC(=O)[C@H](CCC(N)=O)NC(=O)[C@H](C)NC(=O)[C@H](CCCNC(=N)N)NC(=O)[C@H](CCCNC(=N)N)NC(=O)[C@H](CO)NC(=O)[C@H](CC(=O)O)NC(=O)[C@H](CCSC)NC(=O)[C@H](CCC(N)=O)NC(=O)[C@H](CCCCN)NC(=O)[C@H](CO)NC(=O)[C@H](CC(C)C)NC(=O)[C@H](CC(=O)O)NC(=O)[C@H](CO)NC(=O)[C@@H](NC(=O)[C@H](Cc1ccccc1)NC(=O)[C@@H](NC(=O)CNC(=O)[C@H](CCC(N)=O)NC(=O)[C@@H](CO)NC(=O)[C@@H](N)Cc1c[nH]cn1)[C@@H](C)O)[C@@H](C)O)C(=O)N[C@@H](CCC(=O)O)C(=O)N[C@@H](Cc1c[nH]c2ccccc12)C(=O)N[C@@H](CC(C)C)C(=O)N[C@@H](CCCCN)C(=O)N[C@@H](CC(N)=O)C(=O)NCC(=O)NCC(=O)N1CCC[C@H]1C(=O)N[C@@H](CO)C(=O)N[C@@H](CO)C(=O)NCC(=O)N[C@@H](C)C(=O)N1CCC[C@H]1C(=O)N1CCC[C@H]1C(=O)N1CCC[C@H]1C(=O)N[C@@H](CO)C(N)=O) [SEQ ID NO: (35)] | 0.043 nM | 0.0894 nM
8 | H[dS]QGTFTSDLSKQMDSRRARDFIEWLKNGGPSSGAPPPS-NH2 (N-terminus assumed; SMILES CC[C@H](C)[C@H](NC(=O)[C@H](Cc1ccccc1)NC(=O)[C@H](CC(=O)O)NC(=O)[C@H](CCCNC(=N)N)NC(=O)[C@H](C)NC(=O)[C@H](CCCNC(=N)N)NC(=O)[C@H](CCCNC(=N)N)NC(=O)[C@H](CO)NC(=O)[C@H](CC(=O)O)NC(=O)[C@H](CCSC)NC(=O)[C@H](CCC(N)=O)NC(=O)[C@H](CCCCN)NC(=O)[C@H](CO)NC(=O)[C@H](CC(C)C)NC(=O)[C@H](CC(=O)O)NC(=O)[C@H](CO)NC(=O)[C@@H](NC(=O)[C@H](Cc1ccccc1)NC(=O)[C@@H](NC(=O)CNC(=O)[C@H](CCC(N)=O)NC(=O)[C@@H](CO)NC(=O)[C@@H](N)Cc1c[nH]cn1)[C@@H](C)O)[C@@H](C)O)C(=O)N[C@@H](CCC(=O)O)C(=O)N[C@@H](Cc1c[nH]c2ccccc12)C(=O)N[C@@H](CC(C)C)C(=O)N[C@@H](CCCCN)C(=O)N[C@@H](CC(N)=O)C(=O)NCC(=O)NCC(=O)N1CCC[C@H]1C(=O)N[C@@H](CO)C(=O)N[C@@H](CO)C(=O)NCC(=O)N[C@@H](C)C(=O)N1CCC[C@H]1C(=O)N1CCC[C@H]1C(=O)N1CCC[C@H]1C(=O)N[C@@H](CO)C(N)=O) [SEQ ID NO: (31)] | 0.132 nM | 0.0109 nM
9 | HSQGTFTSDLSKQMDSRRAQDFIEWLKNGGPSSGAPPPS-{NH‑(CH2)5‑OH} [SEQ ID NO: (50)] | 0.0225 nM | 0.014 nM
10 | HAQGTFTSDLSKQMDSRRAQDFIEWLKNGGPSSGAPPPS-NH2 [SEQ ID NO: (39)] | 0.683 nM | 0.0046 nM
11 | HSEGTFTSDLSKQMDSRRAQDFIEWLKNGGPSSGAPPPS-NH2 [SEQ ID NO: (10)] | 16.7 nM | 0.0313 nM
12 | H[dS]QGTFTSDLSKQMDSRRAHDFIEWLKNGGPSSGAPPPS-NH2 (N-terminus assumed; SMILES CC[C@H](C)[C@H](NC(=O)[C@H](Cc1ccccc1)NC(=O)[C@H](CC(=O)O)NC(=O)[C@H](Cc1c[nH]cn1)NC(=O)[C@H](C)NC(=O)[C@H](CCCNC(=N)N)NC(=O)[C@H](CCCNC(=N)N)NC(=O)[C@H](CO)NC(=O)[C@H](CC(=O)O)NC(=O)[C@H](CCSC)NC(=O)[C@H](CCC(N)=O)NC(=O)[C@H](CCCCN)NC(=O)[C@H](CO)NC(=O)[C@H](CC(C)C)NC(=O)[C@H](CC(=O)O)NC(=O)[C@H](CO)NC(=O)[C@@H](NC(=O)[C@H](Cc1ccccc1)NC(=O)[C@@H](NC(=O)CNC(=O)[C@H](CCC(N)=O)NC(=O)[C@@H](CO)NC(=O)[C@@H](N)Cc1c[nH]cn1)[C@@H](C)O)[C@@H](C)O)C(=O)N[C@@H](CCC(=O)O)C(=O)N[C@@H](Cc1c[nH]c2ccccc12)C(=O)N[C@@H](CC(C)C)C(=O)N[C@@H](CCCCN)C(=O)N[C@@H](CC(N)=O)C(=O)NCC(=O)NCC(=O)N1CCC[C@H]1C(=O)N[C@@H](CO)C(=O)N[C@@H](CO)C(=O)NCC(=O)N[C@@H](C)C(=O)N1CCC[C@H]1C(=O)N1CCC[C@H]1C(=O)N1CCC[C@H]1C(=O)N[C@@H](CO)C(N)=O) [SEQ ID NO: (29)] | 0.149 nM | 0.028 nM
13 | H[dS]QGTFTSDLSKQMDSRRAQEFIEWLKNGGPSSGAPPPS-NH2 (N-terminus assumed; SMILES CC[C@H](C)[C@H](NC(=O)[C@H](Cc1ccccc1)NC(=O)[C@H](CCC(=O)O)NC(=O)[C@H](CCC(N)=O)NC(=O)[C@H](C)NC(=O)[C@H](CCCNC(=N)N)NC(=O)[C@H](CCCNC(=N)N)NC(=O)[C@H](CO)NC(=O)[C@H](CC(=O)O)NC(=O)[C@H](CCSC)NC(=O)[C@H](CCC(N)=O)NC(=O)[C@H](CCCCN)NC(=O)[C@H](CO)NC(=O)[C@H](CC(C)C)NC(=O)[C@H](CC(=O)O)NC(=O)[C@H](CO)NC(=O)[C@@H](NC(=O)[C@H](Cc1ccccc1)NC(=O)[C@@H](NC(=O)CNC(=O)[C@H](CCC(N)=O)NC(=O)[C@@H](CO)NC(=O)[C@@H](N)Cc1c[nH]cn1)[C@@H](C)O)[C@@H](C)O)C(=O)N[C@@H](CCC(=O)O)C(=O)N[C@@H](Cc1c[nH]c2ccccc12)C(=O)N[C@@H](CC(C)C)C(=O)N[C@@H](CCCCN)C(=O)N[C@@H](CC(N)=O)C(=O)NCC(=O)NCC(=O)N1CCC[C@H]1C(=O)N[C@@H](CO)C(=O)N[C@@H](CO)C(=O)NCC(=O)N[C@@H](C)C(=O)N1CCC[C@H]1C(=O)N1CCC[C@H]1C(=O)N1CCC[C@H]1C(=O)N[C@@H](CO)C(N)=O) [SEQ ID NO: (37)] | 0.0582 nM | 0.0759 nM
